In patent US9266964:

Target: human plasma kallikrein (human) (UniProt P03952)
Assay: ELISA; signal on coated biotinylated human plasma kallikrein divided by signal on streptavidin; Fab

Chain of human plasma kallikrein (human) (P03952 20-390, chain 1 of 2): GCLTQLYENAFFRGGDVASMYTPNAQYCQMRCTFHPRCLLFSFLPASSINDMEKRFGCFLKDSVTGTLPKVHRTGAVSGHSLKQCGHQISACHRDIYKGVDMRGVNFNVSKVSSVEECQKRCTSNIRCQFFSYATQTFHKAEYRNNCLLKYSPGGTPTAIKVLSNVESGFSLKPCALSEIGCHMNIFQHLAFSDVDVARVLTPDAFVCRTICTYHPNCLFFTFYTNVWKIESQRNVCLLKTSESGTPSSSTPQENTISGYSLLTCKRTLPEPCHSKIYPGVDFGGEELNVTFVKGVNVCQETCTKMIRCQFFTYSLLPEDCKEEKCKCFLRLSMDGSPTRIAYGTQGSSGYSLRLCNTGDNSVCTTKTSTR
Chain of human plasma kallikrein (human) (P03952 391-638, chain 2 of 2): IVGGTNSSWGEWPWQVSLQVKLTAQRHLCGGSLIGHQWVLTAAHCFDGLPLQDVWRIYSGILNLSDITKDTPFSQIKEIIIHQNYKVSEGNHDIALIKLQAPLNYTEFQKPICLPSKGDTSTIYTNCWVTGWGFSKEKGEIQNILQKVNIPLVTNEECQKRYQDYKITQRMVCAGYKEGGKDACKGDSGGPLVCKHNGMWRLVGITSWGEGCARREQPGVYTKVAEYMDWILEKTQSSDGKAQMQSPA

| Binder | Human pKal ELISA (T/B) (T/B (target signal / background signal)) |
| --- | --- |
| M28-F01 (Fab, V domains shown) VH: EVQLLESGGGLVQPGGSLRLSCAASGFTFSVYLMHWVRQAPGKGLEWVSGISPSGGYTQYADSVKGRFTISRDNSKNTLYLQMNSLRAEDTAVYYCARPGGLDAFDIWGQGTMVTVSS VL: DIQMTQSPSSLSASVGDRVTITCRASQSINTYLNWYQQKPGKAPKVLIHAASTLESGVPSRFSGSGSGTDFTLTISSLQPEDFATYYCQQSYSTPPTFGQGTKVEIK | 1.5 |
| M29-E02 (Fab, V domains shown) VH: EVQLLESGGGLVQPGGSLRLSCAASGFTFSRYPMMWVRQAPGKGLEWVSVIYPSGGDTFYADSVKGRFTISRDNSKNTLYLQMNSLRAEDTAVYYCASGDDYLWEAAVYWGQGTLVTVSS VL: QSVLTQPPSVSEAPRQRVTISCSGSSSNIGNNAVSWYQQLPGKAPKLLIYYDDLLPSGVSDRFSGSKSGTSASLAISGLRSEDEADYYCAAWDDSLNGFVFGTGTKVTVL | 2 |
